Series [1] has as its target T1, VcDnaB (Vibrio cholerae, UniProt A0A085R2T8 1-468). Description: BLI; 1 mM ATP?; 100 nM VcDnaB + 25-100 nM VcDciA; loading increased, maximal at 25 nM; BLI: 50 mM Hepes pH 7.0, 150 mM NaCl, 0.1% Tween, 1 mM ATP, temperature not stated; NMR: 20 mM phosphate pH 5.6, 50 mM NaCl, 303 K (also 293 K), 26 uM protein. Particulars: protein: recombinant; chain copies: 6; label: 5' biotin.

Series [2] deals with T1, VcDnaB. The series is described as follows: BLI; ATP; + VcDciA 25-100 nM; comparable to ssDNA; BLI: 50 mM Hepes pH 7.0, 150 mM NaCl, 0.1% Tween, 1 mM ATP, temperature not stated; NMR: 20 mM phosphate pH 5.6, 50 mM NaCl, 303 K (also 293 K), 26 uM protein. Particulars: protein: recombinant; chain copies: 6; label: 5' biotin on strand 1; fork, 38 nt hybridized zone; non-complementary tails (strand 1 3' side, strand 2 5' side); 5' overhang 2 nt (AA) of strand 1. A general note: BLI is a label-free optical method that tracks binding on a fibre tip over time.

B1: ssDNA oso23 (ssDNA)
DNA: AAGCGTGGTGAAACCTACCTCTGATTCGAAACCTTCACTTTACGTGGTCTGGCGTGGTGAATGTTCGTCGGCGTGCTCGA
Regarding B1, in the series with VcDnaB [1], the binding result is listed as “binds”.

B2: foDNA oso23/oso18 (dsDNA)
DNA 1: AAGCGTGGTGAAACCTACCTCTGATTCGAAACCTTCACTTTACGTGGTCTGGCGTGGTGAATGTTCGTCGGCGTGCTCGA
DNA 2: CCAGGAATACGGCAAGTTGGAGGCCGGGCTGGATGGAGACTAAGCTTTGGAAGTGAAGGTTTCGAATCAGAGGTAGGTTTCACCACGC
B2: in the series with VcDnaB [2], the binding result is listed as “binds”.
